Assay results as given in article PMC10057379.
Where no end group is shown, it is not given here.

What was measured:
NRP-1 (Homo sapiens) = NRP-1 (Homo sapiens) (UniProt O14786); assay: SPR; settings: cited from earlier work
[1] = molecular target: Neuropilin-1 (NRP-1) (human (endogenous in THP-1)) (UniProt O14786)

Molecule	Kd (NRP-1 (Homo sapiens))	uptake of AGuIX@PS@KDKPPR nanoparticles (1 µM, 4 h or 24 h, 37 °C) by M0, M1 and M2 macrophages, porphyrin fluorescence of the cell lysate; control: AGuIX@PS@scramble, 24 h (fold (M0 and M2 against M1, 24 h)) [1]
KDKPPR peptide	4.7 µM	–
KDKPPR (also: grafted onto AGuIX nanoparticles with porphyrin and gadolinium) [KDKPPR ligand peptide on AGuIX@PS@KDKPPR nanoparticles]	–	3
